Numbering of substitutions follows the chain as printed.
T1: human BCMA (human, UniProt Q02223 1-184)
T1 construct: whole, on cells; also called hBCMA; TNFRSF17
T1 sequence (looked up): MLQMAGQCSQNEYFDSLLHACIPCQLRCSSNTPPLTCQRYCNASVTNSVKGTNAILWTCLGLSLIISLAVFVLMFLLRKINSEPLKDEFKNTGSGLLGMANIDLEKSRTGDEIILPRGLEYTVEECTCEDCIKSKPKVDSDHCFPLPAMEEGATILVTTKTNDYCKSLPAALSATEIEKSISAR

B1: PR003867 (bispecific antibody, human IgG1, lambda, L234A L235A)
light: QAVVTQEPSLTVSPGGTVTLTCRSSTGAVTTSNYANWVQQKPGQAPRGLIGGTNKRAPWTPARFSGSLLGDKAALTLLGAQPEDEAEYFCALWYSNLWVFGGGTKLTVLGQPKAAPSVTLFPPSSEELQANKATLVCLISDFYPGAVTVAWKADSSPVKAGVETTTPSKQSNNKYAASSYLSLTPEQWKSHRSYSCQVTHEGSTVEKTVAPTECS
heavy: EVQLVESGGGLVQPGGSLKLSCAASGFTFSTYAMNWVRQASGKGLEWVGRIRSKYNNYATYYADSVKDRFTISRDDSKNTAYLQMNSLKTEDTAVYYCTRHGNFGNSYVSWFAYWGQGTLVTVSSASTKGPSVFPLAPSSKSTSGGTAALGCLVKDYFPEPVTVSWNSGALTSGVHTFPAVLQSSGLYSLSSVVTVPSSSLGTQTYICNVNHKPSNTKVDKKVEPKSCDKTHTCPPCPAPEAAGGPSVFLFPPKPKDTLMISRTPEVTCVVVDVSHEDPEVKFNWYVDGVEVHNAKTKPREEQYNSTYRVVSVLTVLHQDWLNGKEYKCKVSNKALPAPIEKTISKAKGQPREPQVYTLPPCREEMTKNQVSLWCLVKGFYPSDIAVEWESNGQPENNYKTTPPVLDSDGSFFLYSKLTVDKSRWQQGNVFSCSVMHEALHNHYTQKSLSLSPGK
chain: EVQLVETGGGLIQPGGSLRLSCAASGFTVSDNYMTWVRQAPGKGLEWVSVIFSGGKTYYADSVKGRFTISRDNAKNTLYLQMNSLRAEDTALYYCARRNYDDTRGTDVFDIWGQGTMVTVSSASEPKSSDKTHTCPPCPAPEAAGGPSVFLFPPKPKDTLMISRTPEVTCVVVDVSHEDPEVKFNWYVDGVEVHNAKTKPREEQYNSTYRVVSVLTVLHQDWLNGKEYKCKVSNKALPAPIEKTISKAKGQPREPQVCTLPPSREEMTKNQVSLSCAVKGFYPSDIAVEWESNGQPENNYKTTPPVLDSDGSFFLVSKLTVDKSRWQQGNVFSCSVMHEALHNHYTQKSLSLSPGK
notes: BCMAxCD3, Fab-Fc-VH (structure 11); CD3 Fab of PR003886, BCMA VH of PR004559; IgG1 knob/hole, LALA
B2: PR003871 (bispecific antibody, human IgG1, lambda, L234A L235A)
light: B1 light
heavy: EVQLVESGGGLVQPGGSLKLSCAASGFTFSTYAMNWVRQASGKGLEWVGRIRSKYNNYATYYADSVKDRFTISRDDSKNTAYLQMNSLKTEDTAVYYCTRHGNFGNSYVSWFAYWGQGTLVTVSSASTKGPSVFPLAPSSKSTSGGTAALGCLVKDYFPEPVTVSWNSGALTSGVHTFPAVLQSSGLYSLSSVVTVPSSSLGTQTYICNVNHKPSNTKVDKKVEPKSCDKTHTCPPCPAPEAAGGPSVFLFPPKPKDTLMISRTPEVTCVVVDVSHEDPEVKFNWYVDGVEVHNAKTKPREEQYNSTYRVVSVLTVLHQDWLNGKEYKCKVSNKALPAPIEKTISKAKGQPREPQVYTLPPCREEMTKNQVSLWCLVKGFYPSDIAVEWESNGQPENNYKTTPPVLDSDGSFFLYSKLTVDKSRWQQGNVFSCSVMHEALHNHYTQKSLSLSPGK
chain: B1 chain with N32S, K56R, A60S
notes: BCMAxCD3, Fab-Fc-VH (structure 11); CD3 Fab of PR003886, BCMA VH of PR004566; IgG1 knob/hole, LALA
B3: PR003873 (bispecific antibody, human IgG1, lambda, L234A L235A)
light: B1 light
heavy: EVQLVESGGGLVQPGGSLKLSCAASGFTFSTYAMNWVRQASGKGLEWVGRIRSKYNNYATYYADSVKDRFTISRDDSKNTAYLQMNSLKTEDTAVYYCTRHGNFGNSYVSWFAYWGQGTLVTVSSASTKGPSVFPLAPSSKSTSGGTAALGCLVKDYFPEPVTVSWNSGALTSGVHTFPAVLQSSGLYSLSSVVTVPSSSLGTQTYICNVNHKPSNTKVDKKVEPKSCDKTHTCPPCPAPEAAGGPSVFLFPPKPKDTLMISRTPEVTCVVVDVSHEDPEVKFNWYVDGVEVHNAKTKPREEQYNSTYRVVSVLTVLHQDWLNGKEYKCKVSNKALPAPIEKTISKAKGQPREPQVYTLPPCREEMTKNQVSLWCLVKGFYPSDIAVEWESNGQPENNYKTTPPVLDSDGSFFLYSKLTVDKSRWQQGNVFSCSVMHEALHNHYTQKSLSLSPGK
chain: B1 chain with N32A, K56R, Y59V
notes: BCMAxCD3, Fab-Fc-VH (structure 11); CD3 Fab of PR003886, BCMA VH of PR004568; IgG1 knob/hole, LALA
B4: PR003875 (bispecific antibody, human IgG1, lambda, L234A L235A)
light: B1 light
heavy: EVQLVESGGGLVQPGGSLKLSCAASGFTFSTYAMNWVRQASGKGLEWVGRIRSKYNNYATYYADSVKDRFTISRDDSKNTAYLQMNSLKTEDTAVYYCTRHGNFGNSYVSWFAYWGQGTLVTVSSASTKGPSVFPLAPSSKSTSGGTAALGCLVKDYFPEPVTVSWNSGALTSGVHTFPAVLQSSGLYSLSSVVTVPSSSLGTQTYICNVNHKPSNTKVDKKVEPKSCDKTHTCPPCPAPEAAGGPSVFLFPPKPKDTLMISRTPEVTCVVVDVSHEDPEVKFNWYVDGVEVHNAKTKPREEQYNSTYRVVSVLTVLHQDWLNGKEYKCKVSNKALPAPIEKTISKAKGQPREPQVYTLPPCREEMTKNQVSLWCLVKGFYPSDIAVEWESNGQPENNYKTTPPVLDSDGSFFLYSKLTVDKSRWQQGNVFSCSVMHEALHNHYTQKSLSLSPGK
chain: B1 chain with N32A, K56R, D102Q
notes: BCMAxCD3, Fab-Fc-VH (structure 11); CD3 Fab of PR003886, BCMA VH of PR004570; IgG1 knob/hole, LALA
B5: PR003877 (bispecific antibody, human IgG1, lambda, L234A L235A)
light: B1 light
heavy: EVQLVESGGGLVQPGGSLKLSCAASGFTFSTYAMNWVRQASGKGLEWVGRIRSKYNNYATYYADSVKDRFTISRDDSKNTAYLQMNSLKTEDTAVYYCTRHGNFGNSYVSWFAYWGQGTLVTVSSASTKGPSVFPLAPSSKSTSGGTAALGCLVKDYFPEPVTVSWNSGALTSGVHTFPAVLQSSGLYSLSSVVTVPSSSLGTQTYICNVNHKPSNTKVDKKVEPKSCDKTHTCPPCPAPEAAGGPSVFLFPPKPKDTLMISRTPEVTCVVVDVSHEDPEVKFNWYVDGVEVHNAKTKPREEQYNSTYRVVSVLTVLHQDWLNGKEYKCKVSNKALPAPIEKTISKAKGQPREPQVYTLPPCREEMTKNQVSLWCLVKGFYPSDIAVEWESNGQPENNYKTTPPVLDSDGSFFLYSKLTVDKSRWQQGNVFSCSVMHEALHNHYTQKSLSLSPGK
chain: B1 chain with N32S, Y59V
notes: BCMAxCD3, Fab-Fc-VH (structure 11); CD3 Fab of PR003886, BCMA VH of PR004572; IgG1 knob/hole, LALA
B6: PR003878 (bispecific antibody, human IgG1, lambda, L234A L235A)
light: B1 light
heavy: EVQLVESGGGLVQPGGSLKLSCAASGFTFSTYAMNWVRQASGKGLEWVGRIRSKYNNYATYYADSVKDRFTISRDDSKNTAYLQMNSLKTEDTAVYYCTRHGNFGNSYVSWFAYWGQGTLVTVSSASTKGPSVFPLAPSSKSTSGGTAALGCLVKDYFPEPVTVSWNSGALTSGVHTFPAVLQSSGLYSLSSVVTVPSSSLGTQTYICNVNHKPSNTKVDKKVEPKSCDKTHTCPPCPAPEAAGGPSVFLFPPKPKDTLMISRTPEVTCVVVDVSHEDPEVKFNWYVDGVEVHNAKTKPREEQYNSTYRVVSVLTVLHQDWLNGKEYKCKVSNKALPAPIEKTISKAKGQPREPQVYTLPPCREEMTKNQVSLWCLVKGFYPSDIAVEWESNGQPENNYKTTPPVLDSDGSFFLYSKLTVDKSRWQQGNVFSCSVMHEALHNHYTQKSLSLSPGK
chain: B1 chain with N32S
notes: BCMAxCD3, Fab-Fc-VH (structure 11); CD3 Fab of PR003886, BCMA VH of PR004573; IgG1 knob/hole, LALA
B7: PR003881 (bispecific antibody, human IgG1, lambda, L234A L235A)
light: B1 light
heavy: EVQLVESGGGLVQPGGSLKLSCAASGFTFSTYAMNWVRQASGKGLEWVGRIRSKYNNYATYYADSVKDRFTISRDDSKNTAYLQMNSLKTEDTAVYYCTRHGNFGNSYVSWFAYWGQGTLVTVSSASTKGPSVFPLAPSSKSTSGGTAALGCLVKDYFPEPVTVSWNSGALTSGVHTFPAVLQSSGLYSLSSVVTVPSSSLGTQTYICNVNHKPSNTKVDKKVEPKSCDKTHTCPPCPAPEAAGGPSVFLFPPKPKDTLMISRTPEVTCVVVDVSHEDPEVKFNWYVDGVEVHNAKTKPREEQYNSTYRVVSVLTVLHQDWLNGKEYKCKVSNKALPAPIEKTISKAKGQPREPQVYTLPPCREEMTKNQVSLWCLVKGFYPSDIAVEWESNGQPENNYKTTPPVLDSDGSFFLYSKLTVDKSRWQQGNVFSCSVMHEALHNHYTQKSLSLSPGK
chain: B1 chain with N32S, K56N, D102Q, R104L
notes: BCMAxCD3, Fab-Fc-VH (structure 11); CD3 Fab of PR003886, BCMA VH of PR004561; IgG1 knob/hole, LALA
B8: PR001991 (bispecific antibody, human IgG1, kappa, L234A L235A)
chain 1: EVQLLESGGGLVQPGGSLRLSCAASGFTFNTYAMNWVRQAPGKGLEWVSRIRSKYNNYATYYADSVKDRFTISRDDSKSTLYLQMNSLRAEDTAVYYCVRHGNFGNSYVSWFAYWGQGTLVTVSSRTVAAPSVFIFPPSDEQLKSGTASVVCLLNNFYPREAKVQWKVDNALQSGNSQESVTEQDSKDSTYSLSSTLTLSKADYEKHKVYACEVTHQGLSSPVTKSFNRGEC
chain 2: QAVVTQEPSLTVSPGGTVTLTCRSSTGAVTTSNYANWVQQKPGQAPRGLIGGTNKRAPWTPARFSGSLLGDKAALTLLGAQPEDEAEYFCALWYSNLWVFGGGTKLTVLSSASTKGPSVFPLAPSSKSTSGGTAALGCLVKDYFPEPVTVSWNSGALTSGVHTFPAVLQSSGLYSLSSVVTVPSSSLGTQTYICNVNHKPSNTKVDKKVEPKSCDKTHTCPPCPAPEAAGGPSVFLFPPKPKDTLMISRTPEVTCVVVDVSHEDPEVKFNWYVDGVEVHNAKTKPREEQYNSTYRVVSVLTVLHQDWLNGKEYKCKVSNKALGAPIEKTISKAKGQPREPQVYTLPPCREEMTKNQVSLWCLVKGFYPSDIAVEWESNGQPENNYKTTPPVLDSDGSFFLYSKLTVDKSRWQQGNVFSCSVMHEALHNHYTQKSLSLSPGK
chain 3: EVQLLESGGGLVQPGGSLRLSCAASGFTFSSYAMIWVRQAPGKGLEWVSGISESGGSTYYADSVKGRFTISRDNSKNTLYLQMNSLRAEDTAVYFCVKDLDDILTGYYKDYWGQGTLVTVSSASEPKSSDKTHTCPPCPAPEAAGGPSVFLFPPKPKDTLMISRTPEVTCVVVDVSHEDPEVKFNWYVDGVEVHNAKTKPREEQYNSTYRVVSVLTVLHQDWLNGKEYKCKVSNKALGAPIEKTISKAKGQPREPQVCTLPPSREEMTKNQVSLSCAVKGFYPSDIAVEWESNGQPENNYKTTPPVLDSDGSFFLVSKLTVDKSRWQQGNVFSCSVMHEALHNHYTQKSLSLSPGK
notes: CD3 of PR000511, BCMA VH of PR000940; IgG1 knob/hole, AAG
B9: PR001992 (bispecific antibody, human IgG1, kappa, L234A L235A)
chain 1: B8 chain 1
chain 2: B8 chain 2
chain 3: EVQLVETGGGLIQPGGSLRLSCAASGFPVSSNYMSWVRQAPGKGLEWVSVIFSGGRTYYADSVKGRFTISRDNSKNTLYLQMNSLRAEDTAVYYCARRNWIDGRDAFDIWGQGTMVTVSSASEPKSSDKTHTCPPCPAPEAAGGPSVFLFPPKPKDTLMISRTPEVTCVVVDVSHEDPEVKFNWYVDGVEVHNAKTKPREEQYNSTYRVVSVLTVLHQDWLNGKEYKCKVSNKALGAPIEKTISKAKGQPREPQVCTLPPSREEMTKNQVSLSCAVKGFYPSDIAVEWESNGQPENNYKTTPPVLDSDGSFFLVSKLTVDKSRWQQGNVFSCSVMHEALHNHYTQKSLSLSPGK
notes: BCMAxCD3, Fab(cross VH/VL)-Fc-VH (structure 12); CD3 of PR000511, BCMA VH of PR000943; IgG1 knob/hole, AAG
B10: PR001993 (bispecific antibody, human IgG1, kappa, L234A L235A)
chain 1: B8 chain 1
chain 2: B8 chain 2
chain 3: B9 chain 3 with P28T, S35T, R56S, N99I, W100A, I101V, D102A, R104H, A106V
notes: BCMAxCD3, Fab(cross VH/VL)-Fc-VH (structure 12); CD3 of PR000511, BCMA VH of PR001035; IgG1 knob/hole, AAG
B11: PR003868 (bispecific antibody, human IgG1, lambda, L234A L235A)
light: B1 light
heavy: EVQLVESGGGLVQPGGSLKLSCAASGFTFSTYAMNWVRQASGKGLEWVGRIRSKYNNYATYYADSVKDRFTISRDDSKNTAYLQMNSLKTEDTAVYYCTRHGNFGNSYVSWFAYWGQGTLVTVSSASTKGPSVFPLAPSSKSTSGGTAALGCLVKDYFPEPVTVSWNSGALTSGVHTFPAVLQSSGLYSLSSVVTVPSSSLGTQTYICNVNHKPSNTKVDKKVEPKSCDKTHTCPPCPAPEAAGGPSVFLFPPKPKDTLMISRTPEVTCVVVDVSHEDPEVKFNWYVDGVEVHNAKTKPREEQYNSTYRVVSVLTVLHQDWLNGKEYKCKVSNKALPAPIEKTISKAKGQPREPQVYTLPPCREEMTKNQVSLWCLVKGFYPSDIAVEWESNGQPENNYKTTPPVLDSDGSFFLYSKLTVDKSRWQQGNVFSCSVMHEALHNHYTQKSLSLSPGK
chain: B1 chain with S30Y, Y59V, D102Q
notes: BCMAxCD3, Fab-Fc-VH (structure 11); CD3 Fab of PR003886, BCMA VH of PR004563; IgG1 knob/hole, LALA
B12: PR001994 (bispecific antibody, human IgG1, kappa, L234A L235A)
chain 1: B8 chain 1
chain 2: B8 chain 2
chain 3: B1 chain with K56N, P238G
notes: BCMAxCD3, Fab(cross VH/VL)-Fc-VH (structure 12); CD3 of PR000511, BCMA VH of PR001046; IgG1 knob/hole, AAG
B13: PR003869 (bispecific antibody, human IgG1, lambda, L234A L235A)
light: B1 light
heavy: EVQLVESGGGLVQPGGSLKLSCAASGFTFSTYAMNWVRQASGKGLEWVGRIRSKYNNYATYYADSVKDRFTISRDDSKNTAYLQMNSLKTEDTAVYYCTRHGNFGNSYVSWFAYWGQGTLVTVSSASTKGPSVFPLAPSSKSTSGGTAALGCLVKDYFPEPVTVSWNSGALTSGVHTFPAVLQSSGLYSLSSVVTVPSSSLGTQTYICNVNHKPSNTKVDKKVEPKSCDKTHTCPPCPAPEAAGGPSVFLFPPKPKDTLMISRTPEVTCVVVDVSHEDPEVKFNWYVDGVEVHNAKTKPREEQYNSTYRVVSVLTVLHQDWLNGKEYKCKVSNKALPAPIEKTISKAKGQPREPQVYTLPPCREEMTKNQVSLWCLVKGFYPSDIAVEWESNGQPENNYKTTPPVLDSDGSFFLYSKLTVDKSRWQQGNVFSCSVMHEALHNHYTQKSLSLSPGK
chain: B1 chain with N32S, K56R, A60S, D102Q, R104L
notes: BCMAxCD3, Fab-Fc-VH (structure 11); CD3 Fab of PR003886, BCMA VH of PR004564; IgG1 knob/hole, LALA
B14: PR001995 (bispecific antibody, IgG1)
chain 1: EVQLLESGGGLVQPGGSLRLSCAASGFTFNTYAMNWVRQAPGKGLEWVSRIRSKYNNYATYYADSVKDRFTISRDDSKSTLYLQMNSLRAEDTAVYYCVRHGNFGNSYVSWFAYWGQGTLVTVSSASTKGPSVFPLAPSSKSTSGGTAALGCLVKDYFPEPVTVSWNSGALTSGVHTFPAVLQSSGLYSLSSVVTVPSSSLGTQTYICNVNHKPSNTKVDKKVEPKSC
chain 2: QAVVTQEPSLTVSPGGTVTLTCRSSTGAVTTSNYANWVQQKPGQAPRGLIGGTNKRAPWTPARFSGSLLGDKAALTLLGAQPEDEAEYFCALWYSNLWVFGGGTKLTVLGQPKAAPSVTLFPPSSEELQANKATLVCLISDFYPGAVTVAWKADSSPVKAGVETTTPSKQSNNKYAASSYLSLTPEQWKSHRSYSCQVTHEGSTVEKTVAPTECSDKTHTCPPCPAPEAAGGPSVFLFPPKPKDTLMISRTPEVTCVVVDVSHEDPEVKFNWYVDGVEVHNAKTKPREEQYNSTYRVVSVLTVLHQDWLNGKEYKCKVSNKALGAPIEKTISKAKGQPREPQVYTLPPCREEMTKNQVSLWCLVKGFYPSDIAVEWESNGQPENNYKTTPPVLDSDGSFFLYSKLTVDKSRWQQGNVFSCSVMHEALHNHYTQKSLSLSPGK
chain 3: B8 chain 3
notes: as for B8

Target: T1, human BCMA
Experiment: FACS on NCI-H929 cells
Procedure: This example is intended to investigate the binding activity of anti-BCMA HCAb antibodies to human and cynomolgus monkey BCMAs. […] Specifically, HEK293T/hBCMA cells and HEK293T/cyno BCMA cells were digested and resuspended in a DMEM complete medium. In addition, NCI-H929 cell suspension was collected. The density of each of the three cells was adjusted to 1×10⁶ cells/mL. […] The cells were incubated at 4° C. for 1 h away from light. Thereafter, the cells in each well were rinsed twice with 100 μL of pre-cooled PBS, and centrifuged at 500 g at 4° C. for 5 min, and then the supernatant was discarded. […] The cells in each well were rinsed twice with 100 μL of pre-cooled PBS, and centrifuged at 500 g at 4° C. for 5 min, and then the supernatant was discarded. Finally, the cells in each well were resuspended in 200 μL of pre-cooled PBS. Fluorescence signal values were read using a BD FACS CANTOII flow cytometer or an ACEA NovoCyte flow cytometer, and the data were processed and analyzed using FlowJo v10 (FlowJo, LLC) software. The data were processed and analyzed by plotting using GraphPad Prism 8 software, and binding curves of the antibodies to target cells, EC₅₀ values and other parameters were obtained through four-parameter nonlinear fitting.

Going from B1 to B2, the EC50 falls from 4.6 nM to 2 nM (2.3-fold). The second is the more potent here.

B3 and B4 are within 1.5-fold of each other in EC50: 1.3 nM for the first, 1.2 nM for the second.

B5 and B6 are within 1.5-fold of each other in EC50: 1.7 nM for the first, 1.5 nM for the second.

Going from B7 to B11, the EC50 rises from 2.6 nM to 7.3 nM (2.8-fold).

In the case of B13, the EC50 is reported as 1.7 nM.

Compared with B1, B2 is higher in “Maximum MFI” value: 8590 for the first, 10600 for the second.

Going from B3 to B4, the “Maximum MFI” value falls from 10200 to 9840.

Compared with B5, B6 is lower in “Maximum MFI” value: 11100 for the first, 9240 for the second.

First: B7
Second: B8
The “Maximum MFI” value of the first is higher: 10300 for the first, 1980 for the second.

Compared with B9, B10 is lower in “Maximum MFI” value: 3210 for the first, 1290 for the second.

Going from B11 to B12, the “Maximum MFI” value falls from 17400 to 3430.

First: B13
Second: B14
The “Maximum MFI” value of the first is higher: 12500 for the first, 2590 for the second.

Source: US20230322953A1 (HARBOUR BIOMED SHANGHAI, published 2023)
